Target: Human DPP4 extracellular domain (residues 39-766) (human, UniProt P27487 39-766)
Test: […], ~10 mg/ml in HBS

Human DPP4 extracellular domain (residues 39-766), sequence (P27487 39-766): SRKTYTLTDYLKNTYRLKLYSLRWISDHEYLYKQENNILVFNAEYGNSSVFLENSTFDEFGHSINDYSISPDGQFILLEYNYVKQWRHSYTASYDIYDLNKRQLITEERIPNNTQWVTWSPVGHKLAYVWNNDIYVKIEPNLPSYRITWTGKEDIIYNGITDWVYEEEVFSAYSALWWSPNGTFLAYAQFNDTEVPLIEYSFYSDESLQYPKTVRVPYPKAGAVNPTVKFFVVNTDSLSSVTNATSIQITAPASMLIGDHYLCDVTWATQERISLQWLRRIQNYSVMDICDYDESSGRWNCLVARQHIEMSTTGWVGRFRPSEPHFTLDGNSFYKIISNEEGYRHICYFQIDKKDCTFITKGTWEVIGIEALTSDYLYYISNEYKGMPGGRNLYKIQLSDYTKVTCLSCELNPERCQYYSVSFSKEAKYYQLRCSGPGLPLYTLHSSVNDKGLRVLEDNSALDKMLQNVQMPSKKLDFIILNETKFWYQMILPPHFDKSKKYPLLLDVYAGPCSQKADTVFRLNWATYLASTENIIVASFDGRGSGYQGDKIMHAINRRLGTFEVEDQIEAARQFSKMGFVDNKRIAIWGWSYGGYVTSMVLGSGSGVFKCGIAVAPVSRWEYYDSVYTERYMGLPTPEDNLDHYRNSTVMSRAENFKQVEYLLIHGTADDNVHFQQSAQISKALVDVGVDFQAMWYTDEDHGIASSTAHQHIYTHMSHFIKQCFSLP

B1: MERS-CoV RBD (E367 to Y606) (domain or fragment)
chain: EAKPSGSVVEQAEGVECDFSPLLSGTPPQVYNFKRLVFTNCNYNLTKLLSLFSVNDFTCSQISPAAIASNCYSSLILDYFSYPLSMKSDLSVSSAGPISQFNYKQSFSNPTCLILATVPHNLTTITKPLKYSYINKCSRFLSDDRTEVPQLVNANQYSPCVSIVPSTVWEDGDYYRKQLSPLEGGGWLVASGSTVAMTEQLQMGFGITVQYGTDTNSVCPKLEFANDTKIASQLGNCVEY
binding result: binds

— article PMC3731569 (Cell Research, 2013)
